B1: FUT8 (parent)
chain: YAHQPRTADEIPMEPGDIIGVAGN
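Also: lentivirally expressed fusions sorted by FACS into six bins by GFP to DsRed ratio, PSI derived from sequencing read proportions per bin multiplied by bin number.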

Variants of B1 are the subject of this series. Kind of series: protein stability index of a GFP-peptide fusion (GPS, HEK-293T) (PSI 1-6); higher = more stable. As to conditions: c terminus: a fixed tail appended.
For the variant YAHQPRTADEIPMQPGDIIGVAGN [E14Q], the protein stability index came to 3.47.
In the case of YAHQPRTADEIPMRPGDIIGVAGN [E14R], the protein stability index is 3.48.
With YAHQPRTADEIPMWPGDIIGVAGN [E14W], the protein stability index was 2.1.
In the case of YAHQPRTADEIPMGPGDIIGVAGN [E14G] it was 3.35; in that of YAHQPRTADEIPMLPGDIIGVAGN [E14L], 2.88.
In the case of YAHQPRTADEIPMDPGDIIGVAGN [E14D], the protein stability index was determined as 3.75.
Turning to YAHQPRTADEIPMFPGDIIGVAGN [E14F], the protein stability index worked out at 2.46.
In the case of YAHQPRTADEIPMMPGDIIGVAGN [E14M], the protein stability index came out at 3.25.
As for YAHQPRTADEIPMCPGDIIGVAGN [E14C], the figure is 3.32.
In the case of YAHQPRTADEIPMIPGDIIGVAGN [E14I], the protein stability index turned out to be 3.23.
On to YAHQPRTADEIPMVPGDIIGVAGN [E14V], for which the protein stability index came out at 3.58.
With YAHQPRTADEIPMSPGDIIGVAGN [E14S], the protein stability index was 3.29.
With YAHQPRTADEIPMPPGDIIGVAGN [E14P], the protein stability index was found to be 3.12.
For the variant YAHQPRTADEIPMTPGDIIGVAGN [E14T], the protein stability index was found to be 3.9.
As for YAHQPRTADEIPMAPGDIIGVAGN [E14A], the protein stability index amounted to 3.41.
Take YAHQPRTADEIPMHPGDIIGVAGN [E14H]: the protein stability index was 3.5.
Turning to YAHQPRTADEIPMYPGDIIGVAGN [E14Y], the protein stability index worked out at 2.27.
In the case of YAHQPRTADEIPMNPGDIIGVAGN [E14N] it was 3.25.
Consider YAHQPRTADEIPMKPGDIIGVAGN [E14K], for which the protein stability index is 3.29.
As for YAHQPRTADEIPFEPGDIIGVAGN [M13F], the figure is 3.43; as for YAHQPRTADEIPREPGDIIGVAGN [M13R], 4.43.
Consider YAHQPRTADEIPEEPGDIIGVAGN [M13E], for which the protein stability index worked out at 4.73.
For the variant YAHQPRTADEIPCEPGDIIGVAGN [M13C], the protein stability index was found to be 3.9.
In the case of YAHQPRTADEIPKEPGDIIGVAGN [M13K] it was 3.95.
Consider YAHQPRTADEIPIEPGDIIGVAGN [M13I], for which the protein stability index came out at 3.87.
In the case of YAHQPRTADEIPLEPGDIIGVAGN [M13L] it was 4.1.
YAHQPRTADEIPSEPGDIIGVAGN [M13S]: the protein stability index was found to be 4.07.
In the case of YAHQPRTADEIPGEPGDIIGVAGN [M13G], the protein stability index was determined as 4.52.
As to YAHQPRTADEIPPEPGDIIGVAGN [M13P], the protein stability index was found to be 4.18.
On to YAHQPRTADEIPTEPGDIIGVAGN [M13T], for which the protein stability index was determined as 4.34.
Turning to YAHQPRTADEIPVEPGDIIGVAGN [M13V], the protein stability index came out at 4.68.
In the case of YAHQPRTADEIPNEPGDIIGVAGN [M13N], the protein stability index was 4.46.
For the variant YAHQPRTADEIPAEPGDIIGVAGN [M13A], the protein stability index turned out to be 4.69.
With YAHQPRTADEIPDEPGDIIGVAGN [M13D], the protein stability index turned out to be 4.82.
For the variant YAHQPRTADEIPQEPGDIIGVAGN [M13Q], the protein stability index came to 4.71.
For the variant YAHQPRTADEIPHEPGDIIGVAGN [M13H], the protein stability index stood at 4.33.
For the variant YAHQPRTADEIPYEPGDIIGVAGN [M13Y], the protein stability index is 4.12.
Consider YAHQPRTADEIPWEPGDIIGVAGN [M13W], for which the protein stability index came out at 3.08.
In the case of YAHQPRTADEIMMEPGDIIGVAGN [P12M] it was 3.58.
On to YAHQPRTADEINMEPGDIIGVAGN [P12N], for which the protein stability index is 3.73.
For YAHQPRTADEISMEPGDIIGVAGN [P12S], the protein stability index worked out at 4.08.
YAHQPRTADEIVMEPGDIIGVAGN [P12V]: the protein stability index is 3.72.
In the case of YAHQPRTADEIAMEPGDIIGVAGN [P12A] it was 4.23.
Take YAHQPRTADEIYMEPGDIIGVAGN [P12Y]: the protein stability index is 3.21.
On to YAHQPRTADEIGMEPGDIIGVAGN [P12G], for which the protein stability index amounted to 3.6.
As for YAHQPRTADEIDMEPGDIIGVAGN [P12D], the protein stability index was 4.2.
Turning to YAHQPRTADEICMEPGDIIGVAGN [P12C], the protein stability index worked out at 3.48.
Take YAHQPRTADEIQMEPGDIIGVAGN [P12Q]: the protein stability index came to 4.47.
As for YAHQPRTADEIKMEPGDIIGVAGN [P12K], the figure is 3.96; as for YAHQPRTADEIRMEPGDIIGVAGN [P12R], 3.28; as for YAHQPRTADEIFMEPGDIIGVAGN [P12F], 3.27.
For the variant YAHQPRTADEIIMEPGDIIGVAGN [P12I], the protein stability index is 3.27.
Turning to YAHQPRTADEIHMEPGDIIGVAGN [P12H], the protein stability index was 3.41.
Consider YAHQPRTADEILMEPGDIIGVAGN [P12L], for which the protein stability index is 3.57.
Turning to YAHQPRTADEIWMEPGDIIGVAGN [P12W], the protein stability index worked out at 2.4.
Consider YAHQPRTADEIEMEPGDIIGVAGN [P12E], for which the protein stability index stood at 4.2.
On to YAHQPRTADEITMEPGDIIGVAGN [P12T], for which the protein stability index stood at 4.09.
With YAHQPPTADEIPMEPGDIIGVAGN [R6P], the protein stability index was 4.78.
Turning to YAHQPMTADEIPMEPGDIIGVAGN [R6M], the protein stability index came out at 3.84.
As for YAHQPLTADEIPMEPGDIIGVAGN [R6L], the figure is 4.2; as for YAHQPETADEIPMEPGDIIGVAGN [R6E], 5.23; as for YAHQPGTADEIPMEPGDIIGVAGN [R6G], 4.65.
On to YAHQPSTADEIPMEPGDIIGVAGN [R6S], for which the protein stability index was found to be 4.46.
As to YAHQPCTADEIPMEPGDIIGVAGN [R6C], the protein stability index was found to be 4.05.
In the case of YAHQPYTADEIPMEPGDIIGVAGN [R6Y], the protein stability index was determined as 3.73.
As for YAHQPDTADEIPMEPGDIIGVAGN [R6D], the figure is 4.54.
For YAHQPKTADEIPMEPGDIIGVAGN [R6K], the protein stability index stood at 3.99.
Take YAHQPHTADEIPMEPGDIIGVAGN [R6H]: the protein stability index was 4.25.
As for YAHQPITADEIPMEPGDIIGVAGN [R6I], the figure is 4.12; as for YAHQPVTADEIPMEPGDIIGVAGN [R6V], 4.44.
With YAHQPFTADEIPMEPGDIIGVAGN [R6F], the protein stability index worked out at 3.46.
As to YAHQPQTADEIPMEPGDIIGVAGN [R6Q], the protein stability index was found to be 4.47.
In the case of YAHQPWTADEIPMEPGDIIGVAGN [R6W], the protein stability index worked out at 2.62.
Regarding YAHQPNTADEIPMEPGDIIGVAGN [R6N], the protein stability index was found to be 4.33.
As for YAHQPTTADEIPMEPGDIIGVAGN [R6T], the figure is 4.59.
For the variant YAHQPATADEIPMEPGDIIGVAGN [R6A], the protein stability index worked out at 4.48.
As for YAHQPRTAFEIPMEPGDIIGVAGN [D9F], the figure is 2.68.
YAHQPRTAWEIPMEPGDIIGVAGN [D9W]: the protein stability index stood at 2.16.
In the case of YAHQPRTAQEIPMEPGDIIGVAGN [D9Q] it was 3.74; in that of YAHQPRTAKEIPMEPGDIIGVAGN [D9K], 3.51; in that of YAHQPRTAPEIPMEPGDIIGVAGN [D9P], 3.33.
Take YAHQPRTAAEIPMEPGDIIGVAGN [D9A]: the protein stability index came out at 3.53.
As for YAHQPRTATEIPMEPGDIIGVAGN [D9T], the figure is 3.57; as for YAHQPRTAEEIPMEPGDIIGVAGN [D9E], 4.09; as for YAHQPRTAREIPMEPGDIIGVAGN [D9R], 3.41.
In the case of YAHQPRTANEIPMEPGDIIGVAGN [D9N], the protein stability index came out at 3.65.
Regarding YAHQPRTALEIPMEPGDIIGVAGN [D9L], the protein stability index was 3.1.
As for YAHQPRTACEIPMEPGDIIGVAGN [D9C], the figure is 3.22; as for YAHQPRTAGEIPMEPGDIIGVAGN [D9G], 3.52; as for YAHQPRTAYEIPMEPGDIIGVAGN [D9Y], 2.62.
As for YAHQPRTAIEIPMEPGDIIGVAGN [D9I], the protein stability index turned out to be 2.6.
On to YAHQPRTAHEIPMEPGDIIGVAGN [D9H], for which the protein stability index came out at 3.67.
Take YAHQPRTAVEIPMEPGDIIGVAGN [D9V]: the protein stability index was 2.52.
Consider YAHQPRTASEIPMEPGDIIGVAGN [D9S], for which the protein stability index amounted to 3.67.

The values above are taken from the supplement of paper PMC10567573.
